Patent US20220056112A1 (YUROGEN BIOSYSTEMS, published 2022)

B1: rabbit monoclonal antibody 5B12 against the SARS-CoV-2 nucleocapsid protein (antibody, V domains shown)
VH: QSLEESGGDLVQPEGTLTLTCTASGFSFFYDYYMCWVRQAPGKGLEWIGCIYGASGDTYYASWAKGRFTISKTSSTTVTLRMTSLTAADTATYFCARDVDTGSGIDFELWGPGTLVTVSS
VL: AYDMTQTPASVEVAVGGTVTIKCQASQSIGSYLSWYQQKPGQPPKLLIYSTSTLASGVPSRFKGSGSGTQFTLTISGVECADAATYYCQQGDTNHNIDNIFGGGTEVVVEG
B2: rabbit monoclonal antibody 5B4 against the SARS-CoV-2 nucleocapsid protein (antibody, V domains shown)
VH: QSLEESGGGLVKPGGTLTLTCTVSGLSLSTNAPNWVRQAPGKGLEWIGTIFIDDEDTYYASWAKGRFTISKTSSTTITLKMTSLTAADTATYFCARNSDLWDPGTLVVVSS
VL: AQVLTQTPSPVSAAVGGTVTINCQASQSVYNNNYLSWFQQKPGQPPKLLIYKASTLASGVSSRFKGSGSGTQFTLTISDVQCDDAATYFCLGSYDCRSANCIVFGGGTEVVVKG
B3: rabbit monoclonal antibody 11B12 against the SARS-CoV-2 nucleocapsid protein (antibody, V domains shown)
VH: QQQLEESGGGLVKPGGTLTLTCTVSGLSLSSNTLNWVRQAPGKGLEWIGTIFIDDEDTYYASWAKGRFTISKTSSTTITLKMTSLTAADTATYFCARSSDLWDPGTLVVVSS
VL: AQVLTQTPSSVSAAVGGTVTINCQASQSVYKNNYLSWFQQKPGQPPKLLIYQASKLASGVSSRFKGSGSGTQFTLTISDVQCDDAATYFCLGSYDCRSANCIVFGGGTEVVVKG
B4: rabbit monoclonal antibody 1F8 against the SARS-CoV-2 nucleocapsid protein (antibody, V domains shown)
VH: QEHLEESGGGLVKPGASLTLTCTASGFSLSNNYWICWVRQAPGKGLEWIACIYTGRDYTYYTSWAKGRFTISKTSSTTVTLQLNSLTAADTATYFCARNNTDYGDYWDLWGPGTLVTVSS
VL: AQVLTQTASPVSVAVGDTVTINCQASQSVYKNNYLAWYQLKPGQPPKLLIYWGTKLPSGVPSRFKGSGSGTHFTLTISDVQCDDAATYYCLGSYDCTIAECNVFGGGTEVVVEG
B5: rabbit monoclonal antibody 6H7 against the SARS-CoV-2 nucleocapsid protein (antibody, V domains shown)
VH: QQQLEESGGGLVQPGGSLTLSCKASGFNVNSDCYMCWVRQAPGKGLEWIGCIDTVSGSTYYATWAKGRFTISKTSSTTVTLQMTSLTAADTATYFCARDFLYNVNNAGDIMDLWGPGTLVTVSL
VL: AQVLTQTPSSVSAAVGGTVTINCQSSYNVYNNNYLAWYQQKPGQPPKLLIYTTSTLASGVPSRFSGSGSGTQFTLTISDLECDDAAIYYCQGYYRGPVNDFGGGTEVVVEG
B6: rabbit monoclonal antibody 3A7 against the SARS-CoV-2 nucleocapsid protein (antibody, V domains shown)
VH: QEQLEESGGGLVQPEGSLTLTCTASGFSLSDSAYMCWVRQAPGKGLEWIACIDAGVSGSTYYASWVNGRFTISKTSSTTVTLQMTSLTVADTATYFCARDFLYTPNNAGDIMDLWGPGTLVTVSL
VL: AQVLTQTPSSVSAAVGGTVTINCQSSHTVYSNNYLSWYQQKPGQPPKLLIYSASSLASGVPSRFKGSGSGTQFTLTISDLECDDAAIYYCHGYWRGPVNDFGGGTEVVVEG
B7: rabbit monoclonal antibody 1G7 against the SARS-CoV-2 nucleocapsid protein (antibody, V domains shown)
VH: QQQVVESGGGLVKPGASLTLTCEASGFSFSSGYDMCWVRQAPGKGLEWIACIYPGSSGNTYYASWAKGRFTISKTSSTTVTLQMTSLTAADTATYFCARTYASSSGDYIPYFFNLWGPGTLVTVSS
VL: DIVMTQTPASVEAAVGGTVTIKCQASENIYSGLAWYQQKPGQPPKLLIYDASDLASGVPSRFKGSGSGTEYTLTISDLECADAATYYCQNYYYSSRGFNTFGGGTEVVVKG

target: T1, nucleocapsid protein of SARS-CoV-2 (SARS-CoV-2, UniProt P0DTC9 1-419)

Row | Binder | Kd | koff | kon
1 | B1 | 1.89 nM | 8.29e-05 s⁻¹ | 44000 M⁻¹ s⁻¹
2 | B2 | 0.717 nM | 0.000261 s⁻¹ | 364000 M⁻¹ s⁻¹
3 | B3 | 0.0565 nM | 2.63e-05 s⁻¹ | 465000 M⁻¹ s⁻¹
4 | B4 | 2.29 nM | 0.000206 s⁻¹ | 90200 M⁻¹ s⁻¹
5 | B5 | 0.674 nM | 0.000238 s⁻¹ | 354000 M⁻¹ s⁻¹
6 | B6 | 1.22 nM | 0.000272 s⁻¹ | 224000 M⁻¹ s⁻¹
7 | B7 | 8.14 nM | 9.87e-05 s⁻¹ | 12100 M⁻¹ s⁻¹

target: T1, nucleocapsid protein of SARS-CoV-2; remark: another data set of the same source

Row | Binder | EC50 (read off the curve)
8 | B7 | ~10 ng/mL
